Measurements: US20220267427A1 (SYSMEX, published 2022)
Blank lines part the entries; values can stand above or below the binder they belong to. Where no end group is shown, it is not given here. The star is where a group is joined. Biotin = O=C1N[C@H]2[C@H](CS[C@H]2CCCCC(=O)*)N1

Assays:
Peptide 23 = target: T1, Peptide 23 (human); assay: solid phase ELISA; biotinylated peptide on plate, antibody 2 ug/ml
T1 peptide: Biotin-QAQEYEALLNIKVKLEAE

Peptide 27 = target: T2, Peptide 27 (human); assay: as above
T2 peptide: Biotin-LLEDGEDFNLGDALD

Peptide 26 = target: T3, Peptide 26 (human); assay: as above
T3 peptide: Biotin-IATYRRLLEDGEDFNLGD

Peptide 19 = target: T4, Peptide 19 (human); assay: as above
T4 peptide: Biotin-MEQLNGILLHLESELAQT

Peptide 22 = target: T5, Peptide 22 (human); assay: as above
T5 peptide: Biotin-RAEGQRQAQEYEALLNIK

Peptide 25 = target: T6, Peptide 25 (human); assay: as above
T6 peptide: Biotin-VKLEAEIATYRRLLEDGE

Peptide 21 = target: T7, Peptide 21 (human); assay: as above
T7 peptide: Biotin-SELAQTRAEGQRQAQEYE

Peptide 20 = target: T8, Peptide 20 (human); assay: as above
T8 peptide: Biotin-ILLHLESELAQTRAEGQR

Peptide 24 = target: T9, Peptide 24 (human); assay: as above
T9 peptide: Biotin-ALLNIKVKLEAEIATYRR

[1] = target: T10, fCK18 in apoptosis-induced HepG2 cell culture supernatant (human, UniProt P05783 239-397); assay: plate ELISA with K18-624 magnetic microbeads, K18-328Fab-ALP detector; fCK18 2.23 ng/mL
T10 construct: Natural CK18 fragment from the culture supernatant of apoptosis-induced HepG2 cells (band around 18 KDa); also called fCK18 in apoptosis-inducing cells
T10 sequence: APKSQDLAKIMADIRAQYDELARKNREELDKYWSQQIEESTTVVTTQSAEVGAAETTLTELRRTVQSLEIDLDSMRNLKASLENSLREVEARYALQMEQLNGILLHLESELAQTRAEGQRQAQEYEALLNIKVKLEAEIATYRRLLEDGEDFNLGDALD
Procedure: Measurement samples of 3-fold dilution series (3-fold to 6561-fold dilution) were prepared from the apoptosis-induced HepG2 cell culture supernatant with a diluent (TBS, pH 7.5, 2% BSA), and fCK18 was measured. […] Based on the prepared calibration curve, fCK18 in the measurement sample was measured.
This solution was added to an ELISA plate at 25 μL/well, then each measurement sample was added at 25 μL/well, and the plate was incubated (1500 rpm, RT, 20 min). […] (3) After washing the plate, the HISCL (registered trademark) R4 reagent was added thereto at 50 μL/well, and then the mixture was stirred (1500 rpm, RT, 1 min). Thereafter, the HISCL (registered trademark) R5 reagent was added at 100 μL/well, and then the mixture was stirred (1000 rpm, RT, 10 sec). (4) Luminescence intensity was measured with a plate reader.

[2] = target: T10, fCK18 in apoptosis-induced HepG2 cell …; assay: HISCL sandwich immunoassay; K18-624 magnetic microbeads capture, K18-328Fab-ALP detector; fCK18 20.27 ng/mL
rfCK18 (239-396) = target: T11, rfCK18 (239-396) (human, UniProt P05783 239-396); assay: solid phase ELISA, antigen captured through anti-GST or penta HIS antibody
T11 construct: Bought (Cloud-Clone-Corp.); captured through an anti-GST or penta HIS antibody, the tag is not described
T11 sequence: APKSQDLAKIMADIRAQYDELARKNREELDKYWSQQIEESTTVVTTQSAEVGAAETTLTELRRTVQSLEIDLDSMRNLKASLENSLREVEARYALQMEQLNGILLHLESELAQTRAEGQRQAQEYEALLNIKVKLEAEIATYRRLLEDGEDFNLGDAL
Procedure: (1) An ANTI GST antibody or a penta HIS antibody was added to an ELISA plat at 2.5 μg/mL and 50 μL/well, and the plate was allowed to stand at 4° C. overnight to immobilize the antibody. Thereafter, the plate was washed three times with PBST, and Buffer I′ (10 mM NaH₂PO₄.2H₂O, 149.7 mM NaCl, 2.5 mM EDTA 2Na, 0.10% BSA, pH 7.0) was added thereto at 200 μL/well to prepare a plate stored at 4° C. overnight. […] (3) The plate was washed three times with PBST, and 50 μL each of each antigen diluent was added thereto, followed by shaking for 45 minutes. […] (6) The plate was washed three times with PBST, and 15000-fold diluted Peroxidase-conjugated Affinipure F(ab)′2 Fragment Goat Anti-Mouse IgG (H+L) (Jackson) was added thereto at 50 μL/well, followed by shaking for 45 minutes. (7) The plate was washed three times with PBST, TMB Mix (1-step Ultra TMB-ELISA (Thermo Scientific):3% H₂O₂: Phosphate-Citrate buffer (Sigma)=15:0.15:14.85) was added thereto at 100 μL/well, and the mixture was reacted at room temperature for 10 minutes. Thereafter, 1 M H₂SO₄ was added thereto at 100 μL/well to stop the reaction. (8) Absorbance of the reaction solution at 450 nm was measured with a plate reader.

[3] = target: T10, fCK18 in apoptosis-induced HepG2 cell …; assay: HISCL sandwich immunoassay; K18-624 magnetic microbeads capture, K18-328Fab-ALP detector; fCK18 0.09 ng/mL

Abs450 (Peptide 23): 0.02 | Abs450 (Peptide 27): 0 | Abs450 (Peptide 26): 0.01 | Abs450 (Peptide 19): 0.01 | Abs450 (Peptide 22): 0 | Abs450 (Peptide 25): 0.01 | Abs450 (Peptide 21): 0.01 | Abs450 (Peptide 20): 0 | Abs450 (Peptide 24): 0.01
B1: K18-328 antibody (antibody, V domains shown)
VH: QVHLQQSAAELARPGASVKMSCKASGYTFTNYTIHWIKQRPGQGLEWIGYINPSSGYTDYNQNFKDKTTLTADKSSTTVYMQLSSLTSEDSAVYYCARQIPFAYWGQGTLVTVSA
VL: not shown
notes: Mouse monoclonal antibody from a hybridoma (immunogen full length rCK18)

S/N ratio [1]: 47.3 | S/N ratio [2]: 226 | binding result (rfCK18 (239-396)): no binding (tested: 5 to 10 ng/mL) | S/N ratio [3]: 1.9
B2: K18-624 antibody (antibody, V domains shown)
VH: DVQLVESGGGLVQPGGSRKLSCAASGFTFSSFGMHWVRQAPEKGLEWVAYISSGSTTIYYADTVKGRFTISRDNPKNTLFLQMTSLRSEDTAMYYCARRGMITTGAWFAYWGQGTLVTVSA
VL: DILLTQSPAILSVSPGERVSFSCRASQRIGTSIHWYQQRTNGSPRLLIKYASESISGIPSRFSGSGSGTDFTLSINSVESEDIADYYCQQSYIWPFTFGSGTKLEIK
notes: Mouse monoclonal antibody from a hybridoma (Balb/C mouse immunised with Peptide 1-KLH)
